Assay: yeast display, Sf9 membrane polyspecificity reagent, FACS + sequencing; frameworks hold sequencing errors
Procedure, shortened: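 In a synthetic yeast display library (Saccharomyces cerevisiae BJ5465), nanobody expression was induced with galactose for 36–48 hours. FACS gates were set low and high (top ~1%) using anti-HA fluorescence for expression and streptavidin fluorescence for binding of the Sf9 membrane reagent. Each polyreactivity label is drawn from the gate of origin.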

Row | Sequence | polyreactivity (PSR sort gate)
1 | QEQLVESGGGLVQAGGSLRLSCAASGFTFYFNAMGWYRQAPGKERELVAGITSDGITYYADSVKGRFTISRDNANNTVYLQMNSLKPEDTAVYYCAARKLEWDIKNDYCGQGTQVTVSS | low polyreactivity
2 | QVQLQESGGGLVQAGGSLRLSCAASGNIFDADIMGWYRQAPGKERELVASITDGGSTNYADSVKGRFTISRDNAKNSVYLQMNSLLPEDTAVYYCAAIAYPDIPTYFDYDSDYFYWGQGTQVTVSS | high polyreactivity
3 | QVQLVESGGGLVQAGGSLRLSCAASGRTFHGYAMGWYRQAPGKERELVAAITSSGARTYYADSVKGRFTISRDNAKNTVFLQMNILKPEDSAVYYCAVNWLRGMDWGQGTQVTVSS | high polyreactivity
4 | QVQLVESGGGLVQAGGSLRLSCAASGSTFVVYAMGWYRQAPGKEREFVAAITYRGGRTYYADSVKGRFTISRDNAKNTVYLQMNSLKPEDTAVYYCNAPIVRSGYVRSIPAVYYSYYYWGQGTQVTVSS | high polyreactivity
5 | QVQLVESGGGLVQAGGSLRLSSAASGSTFWYYAMGWYRQAPGTERELVAGITQSGGSTYYADSVKGRFTISRDNAKNTVYLQMNSLKPEDTAVYYCAKDGRVSGDFDYWGQGTQVTVSS | low polyreactivity
6 | QVQLVESGAGLDQAGCSLRISCAASGRIFWFYTMGWYRQAPWKERELVAAISTSGGSTYYADSVKGRFTISRDNEKNTVYLQMNSLKPDDTAVYYCAAQNGYYPQHDYWGQGTQVTVSS | high polyreactivity
7 | HVQLQESGGGLVQAGGSLRLSCAASGNISYSRNMGWYRQAQGKERELVAAIDRGAITYYADSVKGRFTISRDNAKNTVDLQIYSLNPEDTAVYYCAAEYHDRWDHRYWGQGTQVTVSS | high polyreactivity
8 | QVQLVETCGGLDQAGVSLRLSCAASGIIFKTYAMGWYRQAPGKETEYVAPISVSGGGTYYADSVKGRFTISRDNAKNTVYLQMNSPKPEDTAVYYCAARSWYWRYYTLNPYDYWVQGTQVTVSS | high polyreactivity
9 | QVQLVESGGGLVQAGGSLRLSCAASGRIFYYYTMGWYRQAPGKERELVAGISRSGDRTYYADSVKGRFTISRDNGKNTVYLQMNSLKPEDTAVYYFAALYGYVHRKAFYYWGQGTQVTVSS | high polyreactivity
10 | QVQLVESGGGLVQAGGSLRLSCAAAGTYKYYAMGWYRQAPGKERELVAASNRGGSTNYADSVKGRFTISRDNAKNTVYLQMNSLKPEDTAVYYCAAERWYVRGRHYFYWGQGTQVTVSS | high polyreactivity
11 | QVQLVESGGGLVQAGGSLRISSAASGRIFRVNGIGWYIQAPGKERELVAAIRRSGGSTYYADSVKGRFTISRDNAKNSVYLLMNILKPDDTAVYFCAAPVRQSSYTRYDSWGQGTQVTVSS | high polyreactivity
12 | QVQLVESGGGLVQAGGSLRLSCAASRSIFPLYAMGWYRQAPGKERELVAAITYSGGRTYYADSVKGRFTISRDNAKNTVYLQMISLKPEDTAVYYCNTRQRVIDDYWGQGTQVTVSS | high polyreactivity
13 | QVQLVESGGGLVQAGGSLRLSCAASGRTFAYYAMGWYRQAPGKERELVSTITWSDGSTYADSVKGRFTISRDNAKNTVYLQMNSLKPEDTAVYYCAAQGWSWYWYYFYLFDYWGQGTQVTVSS | high polyreactivity
14 | QVQLVESGGGLVQAGRSHRLTCAASGSTDSNAMGWYRQAPGKERELVAAISGTGSRTYYADSVKGRFTISRDNAKNSVYLEMNSLKPEDTAVYYCAASPDVSFRRFSLVVSGDYWGQGNQVTVSS | high polyreactivity
15 | QVQLVESGGGLDLAGGSLRLSCAASGRTCGYNAMGWYRQAPGKERELVATISWGGGSTYYADSVKGRFTISRDNAKNSVYLQMNSLKPEDTAVYYCNKVHYGRRHSYSGAIYGEDYWGQGTQVTVSS | high polyreactivity
16 | QVQLVESGGGLVQAGGSLRLSCAASGSTFTSYAMGWYRQAPGKERELVAAITRNGGTTYYADSVKGRFTISRDNAKNTVYLQMNSLKPEDTAVYYCNAPHYYYITSDRRFDYWGQGTQVTVSS | low polyreactivity
17 | QVQLVESGGGLVQAGGSLRLSCAASGFIFRNYAMGWYRQAPGKERELVAAIDSSGGSTYYADSVKGRFTISRDNAKNTVYLQMNSLKPEDTAVYYCAAESYYYQYEYWGQGTQVTVSS | high polyreactivity
18 | QVQLVESGGGLVQAGGSLRLSCAAYGSTLTWNAMGWYRQAPGKERELVAAITGVGSTNYADSVKGRFTISRDNAKNTVYLQMNSLKPEDSAVYYCAAQGSGSTLYEYWGQGTQVTVSS | low polyreactivity
19 | QVQLVESGGGLVQAGGSLRLSCAASGFTFWGYGMGWYRQAPGKERELVAAISGSGGSTYYADSVKGRFTISRDNAKNTVFLQMNSLKRKIPRSITALLFTVNGGGSRSHDYWAQGTQVTVSS | low polyreactivity
20 | QVQLVESGGGLVQAGGSLRLSCAASGRIFYYYAMGWSRQAPGKERELVAGISYSGGRTYYADSVKGRFTISRDNAKNTVYLQMNSLKPEDTAVYYCAAAYRGANYGYGFDYWGQGTQVTVSS | high polyreactivity
21 | QVQLEESGGGLVQAGGSLRLSCAASGFTFNKYAMGWYRQAPGKERELVDAISSSGGSTRYADSVKGRFKISRDNAKNTVYLQMNSLKPEDSAVYYCAVYVTRDSGWWLYDYWGQGTQVTVAS | high polyreactivity
22 | QVQLVVSGGGLVQQGGSLRLSCAASGTFRYYTMGWYRQAPGKERELVAAISRSGGRSYYADSVTGRCTISRDNAKNTVDLPMNSLKPEDTAVYYCAARYKLYYPDYYYWGQGTQVTVSS | high polyreactivity
23 | QVQLVESGGGLVQAGGSLRLSSAASGSIFSRYAMGWYRQAPGIERELVAAITWSGGSTYYADSVKGRFTISRDNAKNTVYLQMNSLKPEDTAVYYCAAFGYAPYNHRYDYWGQGTQVTVSS | low polyreactivity
24 | QVQLVESGGGLVQAGGSLRLSCAASGSIFYSNAMVWYRQAPGKEREFVAAISTSAGRTYYADSVKGRFTISRDNAKNKVYLQLNSLNPEDTEVYYCAAGTNYGKLRIRFDYWGQGTQVTVSS | low polyreactivity
25 | QVQLVESGGGLVQAGGSLRLSCAASGSIFAWYGMGRYRQAPGIERELVAAITTAGSTNYADSVKGRFTISRDNAKNTVYLHMNSLKPEDTAVYYCATATPYVSLKDAHDYGGQGTQVTVSS | low polyreactivity
26 | QVQLVESGGGLVQAGGSLRLSCAATGFIFGYYALGGYRQAPGKERELVAAINKNGGSTYYADSVKGRFTISRDNAKNTVYLQMNSLKPEDTAVYYCAARARGYAWTYDYWGQGTQVTVSS | high polyreactivity
27 | QVQLVESGGGLVQAGGSLRLSCAASGFIFIFYAMGWYRQAPGKERELVAAITWSDDSTYYADSVKGRFTISRDNAKNTVYLQMNSLKPEDTAVYYCAASYYWYHLRRKYDYWGQGTQVTVSS | low polyreactivity
28 | QVQLVESGGGLVQAGGSLRLSCAASGSTFKWYAMGWYRQAPGKERELVAAISQSGSRTYYADSVKGRFTISRDNAKNTVYLQMNSLKPEDTAVYYCNARRYIYNYDYWGQGTQVTVSS | high polyreactivity
29 | QVQLRESGAGGRQPAPELRCERQYFYWSADGLVSQPPGKEREFVAGIDRGTITNYADSVRGRFTISRDNAKNTVYLQMNSLKPEDTAVYYCNAEYRRRPKLGDEDEYWGHGTQVTVSS | high polyreactivity
30 | QVQLVESGGGLVQAGGSLRLSCAASGSIFQQYAMGWYRQAPGKERELVASINTSGDGTYYADSVKGRFTISRDNAKNSVYLQMNSLKPEDTAVYYCAVEGIFEQLNRMDYWGQGTQVTVSS | low polyreactivity
